# Results as given in patent US8926966B1 (Regents of the University of California, priority 1990, dated 2015).
# Like-named read-outs stand apart in the source and are kept apart here.
# Experiments:
# [1] = system: islet infiltrating T lymphocytes (IITLs); test: ^3H-thymidine incorporation, islet infiltrating T lymphocytes; format: cell-based
# [2] = system: splenic lymphocytes; test: ^3H-thymidine incorporation, splenic lymphocytes; format: cell-based
# [3] = system: NOD mice; test: Insulitis score after tolerization of NOD mice; format: in vivo, mouse; conditions: examined at 12 weeks
# [4] = system: NOD mice
# Description: 1. […] At 12 weeks of age, mice were examined for insulitis and autoantigen reactive T-cells. […] Pancreatic tissue sections were stained by immunoperoxidase techniques for insulin and were counterstained with hematoxylin. Insulitis was scored in a blinded manner by examining 54 to 87 islets on 5 interrupted tissue sections from each pancreas. Proliferative splenic T-cell responses induced by various antigens were performed as described above in Example 4. Data in Table 8 are expressed as the average [^3H]-thymidine label (cpm) incorporated in triplicate cultures.
# [5] = system: NOD mice; test: GAD immunization of 8 week old NOD mice, IDDM onset; format: in vivo, mouse
# Text: Breeder mice were purchased from Taconic Farms and housed under specific pathogen-free conditions. Only female NOD mice were used in this study. […] Insulitis is generally observed beginning at 4 weeks of age. […] The incidence of IDDM in female mice is 70-90% by one year of age.
# Urine glucose levels were monitored twice weekly. After observing above normal glucose in urea, blood glucose levels were monitored twice weekly.
# [6] = system: spleen cells of NOD, BALB/c and (NOD/BALB/c) F1 mice; conditions: <4 or >16 week old NOD or control BALB/c or (NOD/BALB/c) F1 spleen cells
# Description: Incorporation of label was measured by liquid scintillation counting.
# [7] = system: autoantibodies to the 64 kD autoantigen; test: Prior absorption of IDDM serum, recognition of 64 kD pancreatic polypeptide; format: binding; conditions: human pancreatic islet cell lysate
# Description: (§1) Islet cells were extracted as previously described by Atkinson, et al. (Lancet, 335:1357-1360, 1990) with the following modifications. […] The protein A Sepharose CL-4B was then boiled in Laemmli sample buffer (Laemmli, Nature, 227:680-685, 1970), and the samples were subjected to SDS-PAGE and fluororadiography (Kodak, X-omat AR5) using Enhance (New England Nuclear). Alternatively, the autoradiographs were analyzed by a BETAGEN (Boston, Mass.) analyzer. Both 64KA positive and negative sera were used in each assay, to serve as interassay controls. All fluororadiographs were analyzed and rated as positive or negative after comparison with the known interassay controls. […] A similar rating procedure was employed for the intensity of bands corresponding to immunoprecipitated ^35S-GAD65 and ^35S-GAD67.
# Prior absorption of these sera with GAD-6 monoclonal, which recognized GAD65 but not GAD67, or with bacterially produced GAD65, abolished the ability of the sera to recognize the 64 kD pancreatic polypeptide. […] In order to investigate the predictive value of GAD65, sera drawn from patients prior to onset of clinical manifestation of IDDM were tested for autoantibodies to GAD65.
# [8] = system: autoantibodies to GAD in patient sera; test: Immunoprecipitation of ^35S-GAD65 / ^35S-GAD67 by sera drawn prior to IDDM onset; format: binding, human; design: key to band intensity of immunoprecipitated ^35S-GAD: 1 = lowest; 2 = medium; 3 = highest band intensities
# Description: as §1
# Rat GAD65 and GAD67 cDNAs were subcloned into a bacterial expression system as previously described. Labeling of ^35S-GADs was completed by pulsing IPTG induced bacterium (growing in Minimal Media) for 15 minutes with TRAN ^35S-label (ICN). Cultures were then spun down and resuspended and sonicated in 1 ml of homogenizing buffer (1 mM phenylmethylsulfonyl fluoride (PMSF), 1 mM 2-aminoethylisothiouronium Bromide (AET) and 60 mM potassium phosphate, pH 7.1). After sonication, cell debris was removed by centrifugation and protein concentration was measured (Bradford, Anal. Biochem., 72:248, […]) in the supernatant (supernatant was stored in aliquots at −70° C.).
# [9] = system: IDDM autoantibodies in sera of human patients; test: Autoantibody reactivity with ^35S labeled GAD65 segments (immunoprecipitation, SDS-PAGE); format: binding; conditions: IDDM patient sera of Table 10
# Text: Portions of human GAD65 cDNA were amplified by the polymerase chain reaction (PCR; Saiki, et al., Science, 239:487, 1988) to produce DNA segments encoding three polypeptide segments: amino acid residues 1-224 (segment A); 224-398 (segment B); and 398-585 (segment C). Each construct also contained a T7 promoter, a consensus sequence for the initiation of translation and an initiating methionine codon (Korak, M., J. Cell Biol., 108:229, 1989). Each PCR product was then trascribed in vitro with T7 RNA polymerase and translated in vitro in a rabbit reticulocyte cell-free system in the presence of ^35S-methionine, using conditions recommended by the supplier (Amersham Corp., Arlington Heights, Ill.). Each test serum (30 μl) was incubated with the resulting ^35S labeled-polypeptides. The bound peptides were isolated with PAS and analyzed by SDS-PAGE in 12% polyaacrylamide and autoradiography.
molecule,measurement,setting,value
ARFKMFPEVKEKGMAA [GAD65 (SEQ ID NO. 5)],^3H-THYMIDINE INCORPORATION (cpm) BY LYMPHOID CELL POPULATION IITLs,"[1]; 3 × 10^4 cells/well, 5 days culture with irradiated spleen cells","9,500 cpm"
same,IITL proliferative response relative to culture media or polio polypeptide,[1]; IITL population,9 fold
same,^3H-THYMIDINE INCORPORATION (cpm) BY LYMPHOID CELL POPULATION SPLEEN,"[2]; 1 × 10^5 cells/well, 5 days culture","23,300 cpm"
"MKSMCPQAQLKVKYL [Poliovirus (SEQ ID NO. 4), reference compound]",^3H-THYMIDINE INCORPORATION (cpm) BY LYMPHOID CELL POPULATION IITLs,[1],900 cpm
same,^3H-THYMIDINE INCORPORATION (cpm) BY LYMPHOID CELL […],[2],"22,500 cpm"
glutamic acid decarboxylase [GAD],insulitis score of the completely tolerized mice,"[3]; NOD mice, 50 μg i.v. at 3 weeks",0.0
same,Insultis Score,"[3]; Table 8A: female NOD mice, i.v. at 3 weeks of age, 50 μg (hsp-p 0.1 μg) in PBS, scale 0-4, mean ± SE",0.1 ± 0.1
same,glucose levels of treated mice,"[4]; all treated mice, n=17, presently 37 weeks old",normal glucose levels
same,insulitis at 30 weeks of age,"[4]; five treated mice sacrificed at 30 weeks, one had very limited peri-insulitis",four mice were completely free of insulitis
same,significance of delay of diabetes versus β-gal immunized mice,"[5]; 25 ug i.p. in IFA at 8 weeks, again every 6 weeks",< 0.02
same,onset of IDDM compared to control β-gal immunized mice,[5]; FIG. 11,clear delay in the onset of IDDM
same,immunized mice with no signs of hyperglycemia until 36 weeks in age,"[5]; of 10 mice, 25 ug i.p. in IFA at 8 weeks, again every 6 weeks",8
same,T cell proliferation,[6],did not induce T cell proliferation
"GAD65: rat GAD65 expressed in bacteria, ^35S-labeled, in bacterial lysate (protein, UniProt Q05683 1-585, looked up, 35S-labeled, rat GAD65 expressed in bacteria, ^35S-labeled, in bacterial lysate) Glutamate decarboxylase 2: MASPGSGFWSFGSEDGSGDPENPGTARAWCQVAQKFTGGIGNKLCALLYGDSEKPAESGGSVTSRAATRKVACTCDQKPCSCPKGDVNYALLHATDLLPACEGERPTLAFLQDVMNILLQYVVKSFDRSTKVIDFHYPNELLQEYNWELADQPQNLEEILTHCQTTLKYAIKTGHPRYFNQLSTGLDMVGLAADWLTSTANTNMFTYEIAPVFVLLEYVTLKKMREIIGWPGGSGDGIFSPGGAISNMYAMLIARYKMFPEVKEKGMAAVPRLIAFTSEHSHFSLKKGAAALGIGTDSVILIKCDERGKMIPSDLERRILEVKQKGFVPFLVSATAGTTVYGAFDPLLAVADICKKYKIWMHVDAAWGGGLLMSRKHKWKLNGVERANSVTWNPHKMMGVPLQCSALLVREEGLMQSCNQMHASYLFQQDKHYDLSYDTGDKALQCGRHVDVFKLWLMWRAKGTTGFEAHIDKCLELAEYLYNIIKNREGYEMVFDGKPQHTNVCFWFVPPSLRVLEDNEERMSRLSKVAPVIKARMMEYGTTMVSYQPLGDKVNFFRMVISNPAATHQDIDFLIEEIERLGQDL",ability of patient four sera to recognize the 64 kD pancreatic polypeptide after prior absorption,[7],abolished
same,specimens immunoreactive,[8]; 9 out of 12 sera drawn prior to IDDM onset,75%
same,band intensity of immunoprecipitated ^35S-GAD,"[8]; serum of patient eight, drawn 8 months before IDDM onset",0
same,band intensity of immunoprecipitated ^35S-GAD,"[8]; serum of patient eleven, drawn 10 months before IDDM onset",1
same,band intensity of immunoprecipitated ^35S-GAD,"[8]; serum of patient five, drawn 34 months before IDDM onset",1
same,band intensity of immunoprecipitated ^35S-GAD,"[8]; serum of patient nine, drawn 42 months before IDDM onset",1
same,band intensity of immunoprecipitated ^35S-GAD,"[8]; serum of patient one, drawn 9 months before IDDM onset",1
same,band intensity of immunoprecipitated ^35S-GAD,"[8]; serum of patient seven, drawn 3 months before IDDM onset",0
same,band intensity of immunoprecipitated ^35S-GAD,"[8]; serum of patient six, drawn 11 months before IDDM onset",0
same,band intensity of immunoprecipitated ^35S-GAD,"[8]; serum of patient ten, drawn 25 months before IDDM onset",1
same,band intensity of immunoprecipitated ^35S-GAD,"[8]; serum of patient three, drawn 14 months before IDDM onset",2
same,band intensity of immunoprecipitated ^35S-GAD,"[8]; serum of patient twelve, drawn 4 months before IDDM onset",1
same,band intensity of immunoprecipitated ^35S-GAD,"[8]; serum of patient two, drawn 6 months before IDDM onset",3
same,band intensity of immunoprecipitated ^35S-GAD,"[8]; serum of patient, drawn 66 months before IDDM onset",1
"Segment A: human GAD65 amino acid residues 1-224, in vitro translated, ^35S labeled (protein) MASPGSGFWSFGSEDGSGDSENPGTARAWCQVAQKFTGGIGNKLCALLYGDAEKPAESGGSQPPRAAARKAACACDQKPCSCSKVDVNYAFLHATDLLPACDGERPTLAFLQDVMNILLQYVVKSFDRSTKVIDFHYPNELLQEYNWELADQPQNLEEILMHCQTTLKYAIKTGHPRYFNQLSTGLDMVGLAADWLTSTANTNMFTYEIAPVFVLLEYVTLKKM",patients with antibodies reactive with the segment,[9],none
"Segment C: human GAD65 amino acid residues 398-585, in vitro translated, ^35S labeled (protein) MMGVPLQCSALLVREEGLMQNCNQMHASYLFQQDKHYDLSYDTGDKALQCGRHVDVFKLWLMWRAKGTTGFEAHVDKCLELAEYLYNIIKNREGYEMVFDGKPQHTNVCFWYIPPSLRTLEDNEERMSRLSKVAPVIKARMMEYGTTMVSYQPLGDKVNFFRMVISNPAATHQDIDFLIEEIERLGQDL",patients with antibodies reactive with the segment,[9],27%
